These are literature values, as cited in paper PMC4034509, “Overcoming co-product inhibition in the nicotinamide independent asymmetric bioreduction of activated C=C-bonds using flavin-dependent ene-reductases” (Biotechnology and Bioengineering, 2013).

Broadly, the pKa is the negative logarithm of the acid dissociation constant.

This data set concerns the target Tyr206 (UniProt position 206, …). To be noted: Not stated. The value is discussed in the context of the phenol/phenolate charge-transfer complex with the oxidised flavin in the EBP1 active site.

B1: Estrogen binding protein EBP1 (old yellow enzyme homologue) (Candida albicans) (protein)
chain: MTIESTNSFVVPSDTKLIDVTPLGSTKLFQPIKVGNNVLPQRIAYVPTTRFRASKDHIPSDLQLNYYNARSQYPGTLIITEATFASERGGIDLHVPGIYNDAQAKSWKKINEAIHGNGSFSSVQLWYLGRVANAKDLKDSGLPLIAPSAVYWDENSEKLAKEAGNELRALTEEEIDHIVEVEYPNAAKHALEAGFDYVEIHGAHGYLLDQFLNLASNKRTDKYGCGSIENRARLLLRVVDKLIEVVGANRLALRLSPWASFQGMEIEGEEIHSYILQQLQQRADNGQQLAYISLVEPRVTGIYDVSLKDQQGRSNEFAYKIWKGNFIRAGNYTYDAPEFKTLINDLKNDRSIIGFSRFFTSNPDLVEKLKLGKPLNYYNREEFYKYYNYGYNSYDESEKQVIGKPLA
As to B1, the pKa is given as 9.4.
